Several values for one entry are separate records, joined by “and”; a condition that tells them apart may be missing. Equal values may be shown once. Read-outs that look alike come from different tables or passages of the source.
How the values were obtained:
Test in all cases: SEC
SEC [1] = target: the molecule itself
SEC [2] = target: the molecule itself; remark: listed apart in the source
SEC [3] = target: the molecule itself; remark: listed apart in the source

B1: human ribonucleotide reductase RR1 (hRRM1), wild type (enzyme, UniProt P23921 1-792, looked up)
chain: MHVIKRDGRQERVMFDKITSRIQKLCYGLNMDFVDPAQITMKVIQGLYSGVTTVELDTLAAETAATLTTKHPDYAILAARIAVSNLHKETKKVFSDVMEDLYNYINPHNGKHSPMVAKSTLDIVLANKDRLNSAIIYDRDFSYNYFGFKTLERSYLLKINGKVAERPQHMLMRVSVGIHKEDIDAAIETYNLLSERWFTHASPTLFNAGTNRPQLSSCFLLSMKDDSIEGIYDTLKQCALISKSAGGIGVAVSCIRATGSYIAGTNGNSNGLVPMLRVYNNTARYVDQGGNKRPGAFAIYLEPWHLDIFEFLDLKKNTGKEEQRARDLFFALWIPDLFMKRVETNQDWSLMCPNECPGLDEVWGEEFEKLYASYEKQGRVRKVVKAQQLWYAIIESQTETGTPYMLYKDSCNRKSNQQNLGTIKCSNLCTEIVEYTSKDEVAVCNLASLALNMYVTSEHTYDFKKLAEVTKVVVRNLNKIIDINYYPVPEACLSNKRHRPIGIGVQGLADAFILMRYPFESAEAQLLNKQIFETIYYGALEASCDLAKEQGPYETYEGSPVSKGILQYDMWNVTPTDLWDWKVLKEKIAKYGIRNSLLIAPMPTASTAQILGNNESIEPYTSNIYTRRVLSGEFQIVNPHLLKDLTERGLWHEEMKNQIIACNGSIQSIPEIPDDLKQLYKTVWEISQKTVLKMAAERGAFIDQSQSLNIHIAEPNYGKLTSMHFYGWKQGLKTGMYYLRTRPAANPIQFTLNKEKLKDKEKVSKEEEEKERNTAAMVCSLENRDECLMCGS
SEC [1]
  stoichiometry N: 2
SEC [2]
  stoichiometry N: 6

B2: hRRM1 H2E (enzyme, human, UniProt P23921 1-792, looked up)
chain: MEVIKRDGRQERVMFDKITSRIQKLCYGLNMDFVDPAQITMKVIQGLYSGVTTVELDTLAAETAATLTTKHPDYAILAARIAVSNLHKETKKVFSDVMEDLYNYINPHNGKHSPMVAKSTLDIVLANKDRLNSAIIYDRDFSYNYFGFKTLERSYLLKINGKVAERPQHMLMRVSVGIHKEDIDAAIETYNLLSERWFTHASPTLFNAGTNRPQLSSCFLLSMKDDSIEGIYDTLKQCALISKSAGGIGVAVSCIRATGSYIAGTNGNSNGLVPMLRVYNNTARYVDQGGNKRPGAFAIYLEPWHLDIFEFLDLKKNTGKEEQRARDLFFALWIPDLFMKRVETNQDWSLMCPNECPGLDEVWGEEFEKLYASYEKQGRVRKVVKAQQLWYAIIESQTETGTPYMLYKDSCNRKSNQQNLGTIKCSNLCTEIVEYTSKDEVAVCNLASLALNMYVTSEHTYDFKKLAEVTKVVVRNLNKIIDINYYPVPEACLSNKRHRPIGIGVQGLADAFILMRYPFESAEAQLLNKQIFETIYYGALEASCDLAKEQGPYETYEGSPVSKGILQYDMWNVTPTDLWDWKVLKEKIAKYGIRNSLLIAPMPTASTAQILGNNESIEPYTSNIYTRRVLSGEFQIVNPHLLKDLTERGLWHEEMKNQIIACNGSIQSIPEIPDDLKQLYKTVWEISQKTVLKMAAERGAFIDQSQSLNIHIAEPNYGKLTSMHFYGWKQGLKTGMYYLRTRPAANPIQFTLNKEKLKDKEKVSKEEEEKERNTAAMVCSLENRDECLMCGS
SEC [2]
  stoichiometry N: 2 and 6

B3: hRRM1 with the first 74 residues deleted (t-hRRM1) (domain or fragment, human, UniProt P23921 75-792, looked up)
chain: AILAARIAVSNLHKETKKVFSDVMEDLYNYINPHNGKHSPMVAKSTLDIVLANKDRLNSAIIYDRDFSYNYFGFKTLERSYLLKINGKVAERPQHMLMRVSVGIHKEDIDAAIETYNLLSERWFTHASPTLFNAGTNRPQLSSCFLLSMKDDSIEGIYDTLKQCALISKSAGGIGVAVSCIRATGSYIAGTNGNSNGLVPMLRVYNNTARYVDQGGNKRPGAFAIYLEPWHLDIFEFLDLKKNTGKEEQRARDLFFALWIPDLFMKRVETNQDWSLMCPNECPGLDEVWGEEFEKLYASYEKQGRVRKVVKAQQLWYAIIESQTETGTPYMLYKDSCNRKSNQQNLGTIKCSNLCTEIVEYTSKDEVAVCNLASLALNMYVTSEHTYDFKKLAEVTKVVVRNLNKIIDINYYPVPEACLSNKRHRPIGIGVQGLADAFILMRYPFESAEAQLLNKQIFETIYYGALEASCDLAKEQGPYETYEGSPVSKGILQYDMWNVTPTDLWDWKVLKEKIAKYGIRNSLLIAPMPTASTAQILGNNESIEPYTSNIYTRRVLSGEFQIVNPHLLKDLTERGLWHEEMKNQIIACNGSIQSIPEIPDDLKQLYKTVWEISQKTVLKMAAERGAFIDQSQSLNIHIAEPNYGKLTSMHFYGWKQGLKTGMYYLRTRPAANPIQFTLNKEKLKDKEKVSKEEEEKERNTAAMVCSLENRDECLMCGS
SEC [3]
  stoichiometry N: 2
